Legend:
[1] = Yeast two-hybrid ligand dose response assay (growth, OD600) of hERα LBD constructs toward DHB; type: cell-based; details: in yeast; DHB vs E2
Procedure: Phenotypic screening of library variants was carried out based on a yeast two-hybrid system employing two constructs, the hERα LBD construct fused to the DNA binding domain of the yeast Gal4 transactivator, and the common mammalian transcriptional coactivator steroid receptor coactivator-1 (SRC-1) fused to the yeast Gal4 transcriptional activation domain. The hERα-SRC-1 interaction, which is elemental in the role of hERα as a transcriptional activator, is strengthened by the binding of agonist ligands to hERα. This system couples the strength of ligand-receptor interaction within host yeast cells to their growth on media lacking histidine and can be applied in either a selection or screening mode (Chen, et al. (2004) supra).
The plasmids from promising mutants based on this ligand response assay were isolated and re-transformed into fresh yeast cells, and the ligand response assay was carried out again to eliminate possible false-positives.
Plasmids, Strains, Reagents and Growth Media. […]
Ligand Dose Response Assay. […] These microtiter plates were incubated at 30° C. for 24 hours, after which cultures were mixed by pipetting, and OD600 readings were taken using a SPECTRAMAX® 340PC plate reader (Molecular Devices, Sunnyvale, Calif.).

[2] = Mammalian cell transactivation (luciferase) of full-length hERα constructs in HEC-1 cells toward DHB; type: cell-based, human
Procedure: Mammalian cell transactivation profiles for the wild-type hERα and the two best mutants, 4-S and 5-E, were carried out in estrogen receptor-negative human endometrial cancer (HEC-1) cells after cloning the hERα LBD from the chimeric yeast two-hybrid construct into the full-length estrogen receptor construct.
Mammalian Transfection and Luciferase Assay. Methods used for cell culture, transfection, and performance of luciferase assay are known in the art (Muthyala, et al. (2003) J. Med. Chem. 46:1589-1602).

B1: mutant 5-E: hERα mutant: Ala350Met, Leu346Ile, Met388Gln, Gly521Ser, Tyr526Asp, Phe461Leu, Val560Met (protein, UniProt P03372 1-595, looked up, variant A350M L346I M388Q G521S Y526D F461L V560M)
Estrogen receptor: MTMTLHTKASGMALLHQIQGNELEPLNRPQLKIPLERPLGEVYLDSSKPAVYNYPEGAAYEFNAAAAANAQVYGQTGLPYGPGSEAAAFGSNGLGGFPPLNSVSPSPLMLLHPPPQLSPFLQPHGQQVPYYLENEPSGYTVREAGPPAFYRPNSDNRRQGGRERLASTNDKGSMAMESAKETRYCAVCNDYASGYHYGVWSCEGCKAFFKRSIQGHNDYMCPATNQCTIDKNRRKSCQACRLRKCYEVGMMKGGIRKDRRGGRMLKHKRQRDDGEGRGEVGSAGDMRAANLWPSPLMIKRSKKNSLALSLTADQMVSALLDAEPPILYSEYDPTRPFSEASMMGLITNLMDRELVHMINWAKRVPGFVDLTLHDQVHLLECAWLEILQIGLVWRSMEHPGKLLFAPNLLLDRNQGKCVEGMVEIFDMLLATSSRFRMMNLQGEEFVCLKSIILLNSGVYTLLSSTLKSLEEKDHIHRVLDKITDTLIHLMAKAGLTLQQQHQRLAQLLLILSHIRHMSNKSMEHLDSMKCKNVVPLYDLLLEMLDAHRLHAPTSRGGASMEETDQSHLATAGSTSSHSLQKYYITGEAEGFPATV
- selectivity enhancement relative to the fourth round mutant (4-S) [1]: no selectivity enhancement
- Selectivity ([2]; HEC-1 cells, EC50 of E2 divided by EC50 of DHB): ≧2.6 × 10^4
- Fold Improvement ([2]; HEC-1 cells, selectivity DHB vs E2 relative to wild-type hERα): ≧1.4 × 10^8
- selectivity enhancement relative to the fourth round mutant (4-S) ([2]; in mammalian cells, DHB vs E2): no selectivity enhancement

Source: patent publication US20060199250A1, “Method for generating a mutant protein which efficiently binds a target molecule” (priority 2005, published 2006)
